Results from IntAct's records for PubMed 12502741.

Biological target: rb_human RB1 (UniProt P06400)
Sequence (P06400 whole entry): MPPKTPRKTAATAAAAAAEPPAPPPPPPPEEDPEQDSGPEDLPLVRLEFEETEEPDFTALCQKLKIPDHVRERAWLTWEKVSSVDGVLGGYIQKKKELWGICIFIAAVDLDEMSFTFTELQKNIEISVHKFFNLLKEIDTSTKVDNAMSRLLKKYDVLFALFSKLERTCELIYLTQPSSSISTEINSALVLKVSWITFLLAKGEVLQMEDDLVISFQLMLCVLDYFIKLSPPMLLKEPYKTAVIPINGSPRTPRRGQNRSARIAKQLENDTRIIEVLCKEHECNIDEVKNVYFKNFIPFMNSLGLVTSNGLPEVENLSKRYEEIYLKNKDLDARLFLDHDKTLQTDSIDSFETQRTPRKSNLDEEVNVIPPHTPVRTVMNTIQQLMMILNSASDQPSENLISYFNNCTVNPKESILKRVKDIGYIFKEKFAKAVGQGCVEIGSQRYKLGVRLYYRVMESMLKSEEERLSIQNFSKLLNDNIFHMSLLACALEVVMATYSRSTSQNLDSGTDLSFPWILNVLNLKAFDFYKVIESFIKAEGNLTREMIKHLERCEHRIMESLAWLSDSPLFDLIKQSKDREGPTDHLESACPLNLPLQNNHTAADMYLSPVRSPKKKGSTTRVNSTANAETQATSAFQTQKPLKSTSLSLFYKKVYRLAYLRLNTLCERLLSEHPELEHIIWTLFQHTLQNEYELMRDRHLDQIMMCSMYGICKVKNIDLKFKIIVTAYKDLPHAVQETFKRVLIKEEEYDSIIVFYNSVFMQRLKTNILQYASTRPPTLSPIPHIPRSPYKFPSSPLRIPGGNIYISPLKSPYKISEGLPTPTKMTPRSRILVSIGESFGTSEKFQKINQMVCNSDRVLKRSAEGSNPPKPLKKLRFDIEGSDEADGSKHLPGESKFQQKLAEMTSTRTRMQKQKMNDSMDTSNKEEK

Sequence of Transcription factor E2F2 (Homo sapiens), Q14209 E420A (Q14209 whole entry E420A): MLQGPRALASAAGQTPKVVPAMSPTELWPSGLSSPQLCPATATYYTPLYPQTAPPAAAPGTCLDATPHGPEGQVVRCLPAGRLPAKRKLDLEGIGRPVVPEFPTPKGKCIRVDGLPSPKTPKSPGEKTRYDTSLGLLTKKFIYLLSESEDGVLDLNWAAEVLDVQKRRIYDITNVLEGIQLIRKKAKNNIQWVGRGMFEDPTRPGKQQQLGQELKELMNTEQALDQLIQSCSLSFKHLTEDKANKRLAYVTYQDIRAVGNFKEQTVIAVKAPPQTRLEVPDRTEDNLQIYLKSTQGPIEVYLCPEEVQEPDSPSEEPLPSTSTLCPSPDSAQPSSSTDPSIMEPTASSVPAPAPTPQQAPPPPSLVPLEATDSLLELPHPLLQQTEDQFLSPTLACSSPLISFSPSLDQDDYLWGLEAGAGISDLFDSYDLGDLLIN
Sequence of Transcription factor E2F2 (Homo sapiens), Q14209 G421S (Q14209 whole entry G421S): as the sequence (Q14209 whole entry E420A) above, with A420E, G421S counted along it

effect of a mutation on the interaction	Substance
decreasing interaction strength	Transcription factor E2F2 (Homo sapiens), Q14209 E420A
decreasing interaction strength	Transcription factor E2F2 (Homo sapiens), Q14209 G421S
